Results: patent US20240415884A1

Molecular target: T1, CD276 expressed on cells (Du145, PC3, CD276+ 293T, CHO-K1-CD276-Luci cells) (human) (UniProt Q5ZPR3)
T1 sequence (looked up): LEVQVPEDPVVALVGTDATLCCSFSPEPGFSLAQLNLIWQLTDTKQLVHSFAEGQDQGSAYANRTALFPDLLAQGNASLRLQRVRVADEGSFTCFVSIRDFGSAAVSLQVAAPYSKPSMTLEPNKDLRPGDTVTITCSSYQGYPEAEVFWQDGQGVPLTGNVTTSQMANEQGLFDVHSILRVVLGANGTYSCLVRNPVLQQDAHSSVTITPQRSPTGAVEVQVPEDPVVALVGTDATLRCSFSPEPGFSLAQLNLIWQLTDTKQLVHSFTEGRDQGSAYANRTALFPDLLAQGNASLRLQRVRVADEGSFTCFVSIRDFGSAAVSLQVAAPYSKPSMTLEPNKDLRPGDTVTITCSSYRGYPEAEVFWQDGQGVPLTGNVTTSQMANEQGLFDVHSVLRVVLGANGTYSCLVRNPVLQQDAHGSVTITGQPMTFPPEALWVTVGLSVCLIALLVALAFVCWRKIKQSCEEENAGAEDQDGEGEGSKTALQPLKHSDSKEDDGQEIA

B1: BiTE #5 (bispecific antibody, part only; not given: anti-CD3 scFv, part only)
chain, part: EVQLVESGGGLVQPGGSLRLSCAASPFPFTIYEMSWVRQASGKALEWIGYINHSGSTNYNPSLKSRVTISRDNSKNTLYLQMNSLRAEDTAMYYCAILAPDYWGQGTLVTVSSGGGGSGGGGSGGGGS
EC50 (read off the curve), percent lysis: 8 nM
